US20140213531A1 (POLYPHOR, published 2014)
Bridges are numbered along the chain shown (N, C = ends). [ ]: non-standard residue; d: D form. Gly(octyl) = CCCCCCCC[C@H](N)C(=O)O; Pro(4NHCOPhe) = not defined here; Cha = N[C@@H](CC1CCCCC1)C(=O)O; Nle = CCCC[C@H](N)C(=O)O

B1: Example 143 (peptide)
peptide: XCTASIPPQCQ
HELM: PEPTIDE1{[O=C([C@H](CCc1ccccc1)N[*:1])[*:2]].C.T.A.S.I.P.P.Q.C.Q.[dP].P}$PEPTIDE1,PEPTIDE1,2:R3-10:R3|PEPTIDE1,PEPTIDE1,1:R1-13:R2$$$V2.0
SMILES: CC[C@H](C)[C@@H]1NC(=O)[C@H](CO)NC(=O)[C@H](C)NC(=O)[C@H]([C@@H](C)O)NC(=O)[C@@H]2CSSC[C@H](NC(=O)[C@H](CCC(N)=O)NC(=O)[C@@H]3CCCN3C(=O)[C@@H]3CCCN3C1=O)C(=O)N[C@@H](CCC(N)=O)C(=O)N1CCC[C@@H]1C(=O)N1CCC[C@H]1C(=O)N[C@@H](CCc1ccccc1)C(=O)N2
notes: also called Ex. 143
B2: Example 104 (peptide)
peptide: XETASIPPQKY
HELM: PEPTIDE1{[Nle].E.T.A.S.I.P.P.Q.K.Y.[dP].P}$PEPTIDE1,PEPTIDE1,1:R1-13:R2$$$V2.0
SMILES: CCCC[C@@H]1NC(=O)[C@@H]2CCCN2C(=O)[C@H]2CCCN2C(=O)[C@H](Cc2ccc(O)cc2)NC(=O)[C@H](CCCCN)NC(=O)[C@H](CCC(N)=O)NC(=O)[C@@H]2CCCN2C(=O)[C@@H]2CCCN2C(=O)[C@H]([C@@H](C)CC)NC(=O)[C@H](CO)NC(=O)[C@H](C)NC(=O)[C@H]([C@@H](C)O)NC(=O)[C@H](CCC(=O)O)NC1=O
B3: Example 109 (peptide)
peptide: XQTASIPPQTY
HELM: PEPTIDE1{[Nle].Q.T.A.S.I.P.P.Q.T.Y.[dP].P}$PEPTIDE1,PEPTIDE1,1:R1-13:R2$$$V2.0
SMILES: CCCC[C@@H]1NC(=O)[C@@H]2CCCN2C(=O)[C@H]2CCCN2C(=O)[C@H](Cc2ccc(O)cc2)NC(=O)[C@H]([C@@H](C)O)NC(=O)[C@H](CCC(N)=O)NC(=O)[C@@H]2CCCN2C(=O)[C@@H]2CCCN2C(=O)[C@H]([C@@H](C)CC)NC(=O)[C@H](CO)NC(=O)[C@H](C)NC(=O)[C@H]([C@@H](C)O)NC(=O)[C@H](CCC(N)=O)NC1=O
notes: also called Ex. 109
B4: Example 148 (peptide)
peptide: XCTASXPPQCQ
HELM: PEPTIDE1{[CCCCCCCC[C@H](N[*:1])C(=O)[*:2]].C.T.A.S.[CCCCCCCC[C@H](N[*:1])C(=O)[*:2]].P.P.Q.C.Q.[dP].P}$PEPTIDE1,PEPTIDE1,2:R3-10:R3|PEPTIDE1,PEPTIDE1,1:R1-13:R2$$$V2.0
SMILES: CCCCCCCC[C@@H]1NC(=O)[C@@H]2CCCN2C(=O)[C@H]2CCCN2C(=O)[C@H](CCC(N)=O)NC(=O)[C@@H]2CSSC[C@H](NC1=O)C(=O)N[C@@H]([C@@H](C)O)C(=O)N[C@@H](C)C(=O)N[C@@H](CO)C(=O)N[C@@H](CCCCCCCC)C(=O)N1CCC[C@H]1C(=O)N1CCC[C@H]1C(=O)N[C@@H](CCC(N)=O)C(=O)N2
notes: also called Ex. 148
B5: Example 141 (peptide)
peptide: XCTASXPPQCY
HELM: PEPTIDE1{[Nle].C.T.A.S.[Cha].P.P.Q.C.Y.[dP].P}$PEPTIDE1,PEPTIDE1,2:R3-10:R3|PEPTIDE1,PEPTIDE1,1:R1-13:R2$$$V2.0
SMILES: CCCC[C@@H]1NC(=O)[C@@H]2CCCN2C(=O)[C@H]2CCCN2C(=O)[C@H](Cc2ccc(O)cc2)NC(=O)[C@@H]2CSSC[C@H](NC1=O)C(=O)N[C@@H]([C@@H](C)O)C(=O)N[C@@H](C)C(=O)N[C@@H](CO)C(=O)N[C@@H](CC1CCCCC1)C(=O)N1CCC[C@H]1C(=O)N1CCC[C@H]1C(=O)N[C@@H](CCC(N)=O)C(=O)N2
notes: also called Ex. 141
B6: Example 127 (peptide)
peptide: XCTASIPPQCY
HELM: PEPTIDE1{[Nle].C.T.A.S.I.P.P.Q.C.Y.[dK].E}$PEPTIDE1,PEPTIDE1,2:R3-10:R3|PEPTIDE1,PEPTIDE1,1:R1-13:R2$$$V2.0
SMILES: CCCC[C@@H]1NC(=O)[C@H](CCC(=O)O)NC(=O)[C@@H](CCCCN)NC(=O)[C@H](Cc2ccc(O)cc2)NC(=O)[C@@H]2CSSC[C@H](NC1=O)C(=O)N[C@@H]([C@@H](C)O)C(=O)N[C@@H](C)C(=O)N[C@@H](CO)C(=O)N[C@@H]([C@@H](C)CC)C(=O)N1CCC[C@H]1C(=O)N1CCC[C@H]1C(=O)N[C@@H](CCC(N)=O)C(=O)N2
B7: Example 174 (peptide)
peptide: XCTASIPPQCY
HELM: PEPTIDE1{[O=C([C@H](CCc1ccccc1)N[*:1])[*:2]].C.T.A.S.I.P.P.Q.C.Y.[dK].E}$PEPTIDE1,PEPTIDE1,2:R3-10:R3|PEPTIDE1,PEPTIDE1,1:R1-13:R2$$$V2.0
SMILES: CC[C@H](C)[C@@H]1NC(=O)[C@H](CO)NC(=O)[C@H](C)NC(=O)[C@H]([C@@H](C)O)NC(=O)[C@@H]2CSSC[C@H](NC(=O)[C@H](CCC(N)=O)NC(=O)[C@@H]3CCCN3C(=O)[C@@H]3CCCN3C1=O)C(=O)N[C@@H](Cc1ccc(O)cc1)C(=O)N[C@H](CCCCN)C(=O)N[C@@H](CCC(=O)O)C(=O)N[C@@H](CCc1ccccc1)C(=O)N2

Experiments:
Experiment in all cases: enzyme inhibition, pNA substrate
Chymase, from human skin = target: T1, Chymase, from human skin (human, UniProt P23946 22-247)
T1 construct: purified natural enzyme, bought
T1 sequence (looked up): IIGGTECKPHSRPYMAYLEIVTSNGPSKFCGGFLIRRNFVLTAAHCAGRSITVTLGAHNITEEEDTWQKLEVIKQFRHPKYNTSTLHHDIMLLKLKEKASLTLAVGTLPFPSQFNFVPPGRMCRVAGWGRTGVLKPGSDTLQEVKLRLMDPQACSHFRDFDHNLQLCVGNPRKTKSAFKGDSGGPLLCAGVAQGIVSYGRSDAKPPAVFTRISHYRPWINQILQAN

[1] = target: T2, Trypsin, Iodination grade, from human pancreas (human, UniProt P07477 24-247)
T2 construct: purified natural enzyme, bought

[2] = target: Thrombin, from Human Plasma, high activity (human, UniProt P00734 328-622)
[3] = target: T3, Tryptase, from human lung (human, UniProt Q15661 31-275, limits assumed)
T3 construct: purified natural enzyme, bought

[4] = target: T4, Coagulation Factor Xa, from uman plasma (human, UniProt P00742 41-179; P00742 235-488, limits assumed)
T4 construct: purified natural enzyme, bought; also called FXa

[5] = target: T5, CathepsinG, from human neutrophils (human, UniProt P08311 21-244)
T5 construct: purified natural enzyme, bought
T5 sequence (looked up): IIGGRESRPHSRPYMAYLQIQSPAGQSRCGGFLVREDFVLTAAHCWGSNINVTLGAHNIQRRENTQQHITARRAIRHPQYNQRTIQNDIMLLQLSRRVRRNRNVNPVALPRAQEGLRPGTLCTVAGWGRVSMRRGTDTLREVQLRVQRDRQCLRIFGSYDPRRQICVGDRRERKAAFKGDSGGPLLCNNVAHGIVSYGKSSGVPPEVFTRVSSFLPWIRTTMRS

[6] = target: T6, Chymotrypsin, from human pancreas (human, UniProt P17538 19-263)
T6 construct: purified natural enzyme, bought

[7] = target: T7, Urokinase from human urine (human, UniProt P00749 21-431, limits assumed)
T7 construct: purified natural enzyme, bought

T6 sequence (P17538 19-263): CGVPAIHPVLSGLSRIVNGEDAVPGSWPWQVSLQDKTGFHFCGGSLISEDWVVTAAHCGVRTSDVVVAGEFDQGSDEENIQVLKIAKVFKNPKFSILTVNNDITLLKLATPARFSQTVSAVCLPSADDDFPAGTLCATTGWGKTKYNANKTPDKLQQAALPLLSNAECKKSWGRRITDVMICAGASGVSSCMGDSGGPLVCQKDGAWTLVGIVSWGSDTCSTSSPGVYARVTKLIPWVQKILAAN
T3 sequence (Q15661 31-275 limits assumed): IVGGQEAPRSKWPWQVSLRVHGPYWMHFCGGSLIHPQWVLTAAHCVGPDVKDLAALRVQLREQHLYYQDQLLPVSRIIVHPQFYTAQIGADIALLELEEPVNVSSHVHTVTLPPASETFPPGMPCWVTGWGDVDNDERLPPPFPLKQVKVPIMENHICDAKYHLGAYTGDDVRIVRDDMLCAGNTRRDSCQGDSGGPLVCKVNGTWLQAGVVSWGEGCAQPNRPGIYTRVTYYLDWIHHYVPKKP
T4 sequence (P00742 41-179 limits assumed, chain 1 of 2): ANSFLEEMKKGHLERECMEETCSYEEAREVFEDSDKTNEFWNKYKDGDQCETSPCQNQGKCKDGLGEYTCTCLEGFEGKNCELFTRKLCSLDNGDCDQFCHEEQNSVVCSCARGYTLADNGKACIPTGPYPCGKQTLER
T4 sequence (P00742 235-488 limits assumed, chain 2 of 2): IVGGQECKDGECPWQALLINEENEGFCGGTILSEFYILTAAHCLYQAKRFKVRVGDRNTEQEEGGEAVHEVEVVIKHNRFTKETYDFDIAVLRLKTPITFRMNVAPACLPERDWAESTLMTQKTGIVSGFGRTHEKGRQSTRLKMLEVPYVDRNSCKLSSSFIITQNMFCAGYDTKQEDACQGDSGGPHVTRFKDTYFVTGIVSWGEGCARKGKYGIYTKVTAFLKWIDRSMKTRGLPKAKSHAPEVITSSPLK

Binder | % inhibition at 100 µM (Chymase, from human skin) [%] | % inhibition at 100 µM [1] [%] | % inhibition at 100 µM [2] [%] | % inhibition at 100 µM [3] [%] | % inhibition at 100 µM [4] [%] | % inhibition at 100 µM [5] [%] | % inhibition at 100 µM [6] [%] | % inhibition at 100 µM [7] [%]
cyclo([Nle]CAASIPPQCY[dP]P) (disulfide 2-10, also called Ex. 86) [Example 86] | 0 | 0 | 10.7 | 0 | 24.8 | 47 | – | –
B1 | 0 | 12 | 12 | 18 | 0 | 28 | 91 | –
B2 | 0 | 0 | – | 0 | – | 53.5 | – | 0
cyclo([Gly(octyl)]ETASIPPQKY[dP]P) (also called Ex. 156) [Example 156] | 0 | 0 | 17 | 15 | 0 | 46 | – | –
B3 | – | 0 | 0 | – | – | 54.1 | 13.8 | –
cyclo([Nle]CTAS[Cha]P[Pro(4NHCOPhe)]QCQ[dQ]Q) (disulfide 2-10; reading uncertain, also called Ex. 176) [Example 176] | – | – | 15 | 17 | – | 69 | 55 | –
B4 | – | – | 32 | 30 | – | 52 | 91 | 12
B5 | 0 | 0 | 0 | 44.5 | 15.3 | 63.4 | 72.9 | –
B6 | – | 0 | – | 0 | 13.3 | 64 | 47.2 | –
B7 | 0 | – | 11 | 10 | – | 56 | 85 | –
cyclo([Gly(octyl)]CTAS[Cha]P[Pro(4NHCOPhe)]QCQ[dP]P) (disulfide 2-10; not fully specified; reading uncertain, also called Ex. 160) [Example 160] | – | – | 23 | 30 | – | 55 | 94 | 14
